Target: monoclonal antibody 21-4-3
Assay: SPR, captured 21-4-3, 500 nM; % of Fig. 9 reference

Sequence of monoclonal antibody 21-4-3 (VH, as listed by the source, form in doubt, chain 1 of 2): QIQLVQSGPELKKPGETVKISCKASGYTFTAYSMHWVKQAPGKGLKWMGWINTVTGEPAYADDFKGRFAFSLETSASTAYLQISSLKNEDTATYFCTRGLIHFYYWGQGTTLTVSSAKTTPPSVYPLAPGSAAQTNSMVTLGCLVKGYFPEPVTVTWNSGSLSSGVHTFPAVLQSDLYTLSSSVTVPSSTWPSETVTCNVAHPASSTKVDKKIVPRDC
Sequence of monoclonal antibody 21-4-3 (VL, as listed by the source, form in doubt, chain 2 of 2): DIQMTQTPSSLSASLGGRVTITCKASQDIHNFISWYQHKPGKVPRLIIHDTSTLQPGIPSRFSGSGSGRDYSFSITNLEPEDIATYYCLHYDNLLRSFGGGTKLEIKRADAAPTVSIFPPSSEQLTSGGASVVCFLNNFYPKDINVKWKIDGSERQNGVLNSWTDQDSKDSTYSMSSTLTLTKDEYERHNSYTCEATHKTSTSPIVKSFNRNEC

B1: SEQ ID NO: 43 (VHH)
chain: DVQLVESGGGLVQPGGSLRLSCAASGFILDYYAIGWFRQAPGKEREGVLCIDASDDITYYADSVKGRFTISRDNSKNTVYLQMNSLRPEDTAVYYCATPIGLSSSCLLEYDYDYWGQGTLVTVSSGGGGSGGGSEVQLLESGGGLVQPGGSLRLSCAASGFTFRSFGMSWVRQAPGKGPEWVSSISGSGSDTLYADSVKGRFTISRDNSKNTLYLQMNSLRPEDTAVYYCTIGGSLSRSSQGTLVTVSSA
Binder B1 has a binding of 21-4-3, % of Reference Sequence of 3%.

B2: SEQ ID NO: 45 (VHH)
VHH: EVQLVESGGGLVQAGGSLRLSCAASRSIGRLDRMGWYRHRTGEPRELVATITGGSSINYGDFVKGRFTISIDNAKNTVYLQMNNLKPEDTAVYYCNFNKYVTSRDTWGQGTQVTVSS
In the case of B2, the binding of 21-4-3, % of Reference Sequence is reported as 22%.

B3: SEQ ID NO: 47 (VHH)
VHH: EVQLVESGGGLVQPGGSLRLSCAASGSVFKINVMAWYRQAPGKGRELVAGIISGGSTSYADSVKGRFTISRDNAKNTLYLQMNSLRPEDTAVYYCAFITTESDYDLGRRYWGQGTLVTVSS
For B3, the binding of 21-4-3, % of Reference Sequence was 4%.

B4: SEQ ID NO: 48 (VHH)
VHH: EVQLVESGGGLVQPGGSLRLSCIASGLPFSTKSMGWFRQAPGKEREFVARISPGGTSRYYGDFVKGRFAISRDNAKNTTWLQMNSLKAEDTAVYYCASGERSTYIGSNYYRTNEYDYWGTGTQVTVSS
For B4, the binding of 21-4-3, % of Reference Sequence was 3%.

B5: SEQ ID NO: 49 (VHH)
VHH: EVQLLESGGGLVQPGGSLRLSCAASGLPFSTKSMGWFRQAPGKGREFVSRISPGGTSRYYGDFVKGRFTISRDNSKNTLYLQMNSLRAEDTAVYYCASGERSTYIGSNYYRTNEYDYWGQGTLVTVSS
Work on B5 yielded a binding of 21-4-3, % of Reference Sequence of 4%.

B6: SEQ ID NO: 65 (VHH)
VHH: EVQLVESGGGLVQAGGSLRLSCAASRSIGRLDRMGWYRHRPGEPRELVATITGGSSINYGDSVKGRFTISIDNSKNTVYLQMNSLRPEDTAVYYCNFNKYVTSRDTWGQGTLVTVSS
With B6 the binding of 21-4-3, % of Reference Sequence was 23%.

B7: SEQ ID NO: 66 (VHH)
VHH: EVQLVESGGGSVQPGGSLRLSCAASRSIGRLDRMGWYRHRPGEPRELVATITGGSSINYGDSVKGRFTISIDNSKNTVYLQMNSLRPEDTAVYYCNFNKYVTSRDTWGQGTLVTVSS
B7 showed a binding of 21-4-3, % of Reference Sequence of 48%.

B8: SEQ ID NO: 67 (VHH)
VHH: EVQLVESGGGLVQPGGSLRLSCAASRSIGRLDRMGWYRHRPGEPRELVATITGGSSINYGDSVKGRFTISIDNSKNTVYLQMNSLKPEDTAVYYCNFNKYVTSRDTWGQGTLVTVSS
Work on B8 yielded a binding of 21-4-3, % of Reference Sequence of 101%.

B9: SEQ ID NO: 68 (VHH)
VHH: EVQLVESGGGLVQAGGSLRLSCAASRSIGRLDRMGWYRHRPGEPRELVATITGGSSINYGDSVKGRFTISIDNSKNTVYLQMNSLRPEDTAVYYCNFNKYVTSRDTWGQGTQVTVSS
Binder B9 has a binding of 21-4-3, % of Reference Sequence of 26%.

B10: SEQ ID NO: 69 (VHH)
VHH: EVQLVESGGGLVQPGGSLRLSCAASRSIGRLDRMGWYRHRPGEPRELVATITGGSSINYGDSVKGRFTISIDNSKNTVYLQMNSLRPEDTAVYYCNFNKYVTSRDTWGQGTQVTVSS
B10 gave a binding of 21-4-3, % of Reference Sequence of 106%.

B11: SEQ ID NO: 70 (VHH)
VHH: EVQLVESGGGLVQPGGSLRLSCAASRSIGRLDRMGWYRHRPGEPRELVATITGGSSINYGDSVKGRFTISIDNSKNTVYLQMNSLRPEDTAVYYCNFNKYVTSRDTWGQGTLVQVSS
For B11, the binding of 21-4-3, % of Reference Sequence was 106%.

B12: SEQ ID NO: 71 (VHH)
VHH: EVQLVESGGGLVQPGGSLRLSCAASRSIGRLDRMGWYRHRPGEPRELVATITGGSSINYGDSVKGRFTISIDNSKNTVYLQMNSLRPEDTAVYYCNFNKYVTSRDTWGQGTLVTVSG
B12 gave a binding of 21-4-3, % of Reference Sequence of 44%.

B13: SEQ ID NO: 78 (VHH)
VHH: EVQLVESGGGLVRPGGSLRLSCAASRSIGRLDRMGWYRHRPGEPRELVATITGGSSINYGDSVKGRFTISIDNSKNTVYLQMNSLRPEDTAVYYCNFNKYVTSRDTWGQGTLVTVSS
Work on B13 yielded a binding of 21-4-3, % of Reference Sequence of 1%.

B14: SEQ ID NO: 80 (VHH)
VHH: EVQLVESGGGLVQPGGSLRLSCAASRSIGRLDRMGWYRHRPGEPRELVATITGGSSINYGDSVKGRFTISIDNSKNTVYLQMNSLRPEDTAVYYCNFNKYVTSRDTWGQGTLVQVGG
B14 was tested, and the binding of 21-4-3, % of Reference Sequence was 51%.

B15: SEQ ID NO: 81 (VHH)
VHH: EVQLVESGGGVVQPGGSLRLSCAASRSIGRLDRMGWYRHRPGEPRELVATITGGSSINYGDSVKGRFTISIDNSKNTVYLQMNSLRPEDTAVYYCNFNKYVTSRDTWGQGTLVTVSS
Work on B15 yielded a binding of 21-4-3, % of Reference Sequence of 75%.

B16: SEQ ID NO: 82 (VHH)
VHH: EVQLVESGGGLVQPGGSLRLSCAASRSIGRLDRMGWYRHRPGEPRELVATITGGSSINYGDSVKGRFTISIDNSKNTVYLQMNSLRAEDTAVYYCNFNKYVTSRDTWGQGTLVTVSS
B16 showed a binding of 21-4-3, % of Reference Sequence of 56%.

B17: SEQ ID NO: 83 (VHH)
VHH: EVQLVESGGGLVQPGGSLRLSCAASRSIGRLDRMGWYRHRPGEPRELVATITGGSSINYGDSVKGRFTISIDNSKNTVYLQMNSLRPEDAAVYYCNFNKYVTSRDTWGQGTLVTVSS
In the case of B17, the binding of 21-4-3, % of Reference Sequence is reported as 79%.

B18: SEQ ID NO: 84 (VHH)
VHH: EVQLVESGGGLVQPGGSLRLSCAASRSIGRLDRMGWYRHRPGEPRELVATITGGSSINYGDSVKGRFTISIDNSKNTVYLQMNSLRPEDTAVYYCNFNKYVTSRDTWGQGTLVTVGS
Work on B18 yielded a binding of 21-4-3, % of Reference Sequence of 91%.

B19: SEQ ID NO: 85 (VHH)
VHH: EVQLVESGGGSVQPGGSLRLSCAASRSIGRLDRMGWYRHRPGEPRELVATITGGSSINYGDSVKGRFTISIDNSKNTVYLQMNSLRPEDTAVYYCNFNKYVTSRDTWGQGTLVQVGG
For B19, the binding of 21-4-3, % of Reference Sequence was 32%.

B20: SEQ ID NO: 87 (VHH)
VHH: EVQLVESGGGSVQPGGSLRLSCAASRSIGRLDRMGWYRHRPGEPRELVATITGGSSINYGDSVKGRFTISIDNSKNTVYLQMNSLRPEDTAVYYCNFNKYVTSRDTWGQGTLVTVGG
With B20 the binding of 21-4-3, % of Reference Sequence was 41%.

B21: SEQ ID NO: 89 (VHH)
VHH: EVQLVESGGGSVQAGGSLRLSCAASRSIGRLDRMGWYRHRPGEPRELVATITGGSSINYGDSVKGRFTISIDNSKNTVYLQMNSLRPEDTAVYYCNFNKYVTSRDTWGQGTLVQVGG
In the case of B21, the binding of 21-4-3, % of Reference Sequence is reported as 2%.

— patent EP2974737A1
